Data reported in the supplement of paper PMC10899765.

Tests used:
Conditions in all cases: 20 nM; 72 h
[1] = system: MCF10A; test: percent viability (nuclei count relative to siNT); higher = more viable cells
Experimental: (§1)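 After 72 h, cells were fixed and stained with Hoechst and anti-fibrillarin, and nucleoli per nucleus were counted with CellProfiler. Values are plate-adjusted percent effect for the one-nucleolus and 5+ nucleoli phenotypes, normalised to siNT (0%) and to the positive controls siNOL11 or siKIF11 (100%), as the mean of biological triplicates. Percent viability is the nuclei count relative to siNT.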

[2] = system: MCF10A; test: 5+ nucleoli phenotype percent effect (relative to siNT 0% and siKIF11 100%); higher = more cells with five or more nucleoli
Experimental: as §1

[3] = system: MCF10A; test: one-nucleolus phenotype percent effect (relative to siNT 0% and siNOL11 100%); higher = more cells with one nucleolus (ribosome biogenesis inhibition)
Experimental: as §1

Sequence | percent viability [1] [%] | 5+ nucleoli phenotype percent effect [2] [%] | one-nucleolus phenotype percent effect [3] [%]
CUGGGAGGUGUGAUAUUGUGGU [hsa-miR-3689c] | 9.66 | -32.9 | 44
CUGGGAUCUCCGGGGUCUUGGUU [hsa-miR-769-3p] | 40.7 | -14.5 | 18
CUGGGCCCGCGGCGGGCGUGGGG [hsa-miR-6724-5p] | 74.9 | 19.6 | -9.05
CUGGGCUCGGGACGCGCGGCU [hsa-miR-4674] | 31.3 | -33.5 | 18.5
CUGGGGAGAUCCUCGAGGUUGG [hsa-miR-3150a-3p] | 18.9 | -16.4 | 23.4
CUGGGGAGUGGCUGGGGAG [hsa-miR-6763-5p] | 29.7 | -2.28 | 30.5
CUGGGGGACGCGUGAGCGCGAGC [hsa-miR-4665-5p] | 31.2 | 9.32 | 18.8
CUGGGGGGAGGAGACCCUGCU [hsa-miR-7109-5p] | 38.9 | -2.63 | 29.9
CUGGGGGUGGGGGGCUGGGCGU [hsa-miR-6803-5p] | 86.6 | 16 | -13.5
CUGGGGUUCUGAGACAGACAGU [hsa-miR-3170] | 9.55 | -46.2 | 40.9
CUGGGUGAGGGCAUCUGUGGU [hsa-miR-6736-5p] | 24.3 | -27 | 34.4
CUGGGUUGGGCUGGGCUGGG [hsa-miR-4507] | 28.4 | -11.1 | -1.41
CUGGUACAGGCCUGGGGGACAG [hsa-miR-150-3p] | 66.2 | 1.02 | 11
CUGGUUUCACAUGGUGGCUUAG [hsa-miR-29b-2-5p] | 43.4 | 7.64 | -3.17
CUGUAAUAUAAAUUUAAUUUAUU [hsa-miR-2054] | 168 | 28 | -17.6
CUGUACAACCUUCUAGCUUUCC [hsa-let-7c-3p] | 74.2 | -7.45 | -4.89
CUGUACAGCCUCCUAGCUUUCC [hsa-let-7a-2-3p] | 43.3 | -34.3 | 2.44
CUGUACAGGCCACUGCCUUGC [hsa-let-7g-3p] | 55.1 | -28.3 | -2.69
CUGUAUGCCCUCACCGCUCA [hsa-miR-675-3p] | 37.8 | -14.5 | 0.624
CUGUCCUAAGGUUGUUGAGUU [hsa-miR-676-3p] | 20.8 | 29.3 | -12
CUGUGCGUGUGACAGCGGCUGA [hsa-miR-210] | 56.6 | -13.9 | -1.99
CUGUGGGCUCAGCGCGUGGGG [hsa-miR-4322] | 31.3 | -30.6 | 28.2
CUGUGGGCUCAGCUCUGGG [hsa-miR-4265] | 27.1 | -38.1 | 42.3
CUGUUGCCACUAACCUCAACCU [hsa-miR-744-3p] | 56 | -44.1 | 27.3
CUUAGACUGCCAGACUCCCUGA [hsa-miR-7702] | 163 | 59.3 | -29.9
CUUAGAUUAGAGGAUAUUGUU [hsa-miR-8061] | 73.7 | 58.8 | -12.7
CUUAGCAGGUUGUAUUAUCAUU [hsa-miR-374b-3p] | 67.5 | -9.55 | -6.79
CUUAUAUCAGAGGCUGUGGG [hsa-miR-6083] | 40.8 | -34.4 | 28.6
CUUAUCAGAUUGUAUUGUAAUU [hsa-miR-374a-3p] | 160 | 33 | -24.3
